Experimental data reported in publication PMC3342958, “IDN2 and Its Paralogs Form a Complex Required for RNA–Directed DNA Methylation”.

T1: IDN2-a (XS+coiled-coil) (Arabidopsis thaliana, UniProt Q8VZ79 1-511)
T1 sequence: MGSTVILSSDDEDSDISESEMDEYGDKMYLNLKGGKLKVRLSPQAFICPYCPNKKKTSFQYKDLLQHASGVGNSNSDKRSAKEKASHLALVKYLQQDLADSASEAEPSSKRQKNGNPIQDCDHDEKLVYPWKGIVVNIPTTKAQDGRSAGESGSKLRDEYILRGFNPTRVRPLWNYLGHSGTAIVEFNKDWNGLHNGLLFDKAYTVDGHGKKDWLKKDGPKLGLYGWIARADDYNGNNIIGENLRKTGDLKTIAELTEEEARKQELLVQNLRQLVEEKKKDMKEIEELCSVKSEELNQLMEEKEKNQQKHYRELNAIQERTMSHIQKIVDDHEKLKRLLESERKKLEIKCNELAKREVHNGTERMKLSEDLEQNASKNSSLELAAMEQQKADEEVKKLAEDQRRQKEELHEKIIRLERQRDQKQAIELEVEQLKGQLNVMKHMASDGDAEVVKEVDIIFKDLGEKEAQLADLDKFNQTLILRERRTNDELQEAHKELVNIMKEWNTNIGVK

T2: IDN2 (Arabidopsis thaliana, UniProt Q8VZ79 1-647)
T2 sequence: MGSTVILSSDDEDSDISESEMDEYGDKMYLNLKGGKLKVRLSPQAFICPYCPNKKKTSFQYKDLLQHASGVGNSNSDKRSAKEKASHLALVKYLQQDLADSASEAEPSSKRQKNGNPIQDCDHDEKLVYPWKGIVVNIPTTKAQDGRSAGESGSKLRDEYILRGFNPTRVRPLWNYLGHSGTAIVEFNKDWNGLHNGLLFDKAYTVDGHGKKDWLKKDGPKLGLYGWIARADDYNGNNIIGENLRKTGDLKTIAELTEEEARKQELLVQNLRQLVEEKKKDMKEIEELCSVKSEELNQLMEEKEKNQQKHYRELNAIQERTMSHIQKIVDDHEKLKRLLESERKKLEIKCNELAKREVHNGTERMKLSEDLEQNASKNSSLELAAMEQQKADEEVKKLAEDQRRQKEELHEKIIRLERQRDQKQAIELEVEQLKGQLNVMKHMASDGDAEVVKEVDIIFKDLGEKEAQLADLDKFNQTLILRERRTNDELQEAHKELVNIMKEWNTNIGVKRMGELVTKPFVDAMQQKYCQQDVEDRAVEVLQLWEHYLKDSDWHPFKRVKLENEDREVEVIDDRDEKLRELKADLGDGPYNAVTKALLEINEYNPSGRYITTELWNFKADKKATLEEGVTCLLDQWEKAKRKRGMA

T3: IDP1 (Arabidopsis thaliana, UniProt Q9S9P3 1-634)
T3 sequence: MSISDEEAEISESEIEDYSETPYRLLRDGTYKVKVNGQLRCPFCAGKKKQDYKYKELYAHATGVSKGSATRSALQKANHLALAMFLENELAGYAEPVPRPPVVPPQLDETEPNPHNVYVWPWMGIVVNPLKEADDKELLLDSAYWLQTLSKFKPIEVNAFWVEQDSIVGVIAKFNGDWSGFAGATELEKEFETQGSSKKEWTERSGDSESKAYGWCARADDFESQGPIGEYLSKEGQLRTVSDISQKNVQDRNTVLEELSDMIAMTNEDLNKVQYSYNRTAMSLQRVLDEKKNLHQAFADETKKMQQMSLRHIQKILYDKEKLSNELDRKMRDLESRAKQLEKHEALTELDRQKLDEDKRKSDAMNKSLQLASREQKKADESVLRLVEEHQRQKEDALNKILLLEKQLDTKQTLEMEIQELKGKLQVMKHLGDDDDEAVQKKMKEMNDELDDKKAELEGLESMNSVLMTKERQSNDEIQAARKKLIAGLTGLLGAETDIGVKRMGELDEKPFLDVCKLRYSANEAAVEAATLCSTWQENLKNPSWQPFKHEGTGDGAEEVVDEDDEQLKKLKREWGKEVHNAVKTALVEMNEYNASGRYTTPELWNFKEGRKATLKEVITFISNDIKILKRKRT

T4: IDP2 (Arabidopsis thaliana, UniProt F4JH53 1-635)
T4 sequence: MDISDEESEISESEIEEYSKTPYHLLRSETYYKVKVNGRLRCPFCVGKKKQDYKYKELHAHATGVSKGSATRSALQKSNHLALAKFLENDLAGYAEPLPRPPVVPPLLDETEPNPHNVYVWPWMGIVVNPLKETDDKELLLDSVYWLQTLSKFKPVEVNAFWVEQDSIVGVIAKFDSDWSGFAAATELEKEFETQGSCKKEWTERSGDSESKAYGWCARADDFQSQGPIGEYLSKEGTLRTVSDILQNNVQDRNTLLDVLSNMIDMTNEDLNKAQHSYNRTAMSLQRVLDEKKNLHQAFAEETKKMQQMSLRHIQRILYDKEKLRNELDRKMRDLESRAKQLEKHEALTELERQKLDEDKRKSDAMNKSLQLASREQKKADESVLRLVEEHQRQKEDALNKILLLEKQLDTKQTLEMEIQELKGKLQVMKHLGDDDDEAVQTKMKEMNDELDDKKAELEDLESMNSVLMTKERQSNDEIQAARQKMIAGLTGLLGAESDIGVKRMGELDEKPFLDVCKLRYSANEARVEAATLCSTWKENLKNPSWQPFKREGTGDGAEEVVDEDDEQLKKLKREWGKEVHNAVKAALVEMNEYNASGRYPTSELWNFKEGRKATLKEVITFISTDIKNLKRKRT

B1: RD29A dsRNA, 5' overhang (dsRNA)
RNA 1: ACGCUUCAUACGUGUCCCUUUAUCUCUCUCAGUCU
RNA 2: AGAGACUGAGAGAGAUAAAGGGACACGUAUGAAGC
B2: RD29A dsRNA, blunt (dsRNA)
RNA 1: ACGCUUCAUACGUGUCCCUUUAUCUCUCUCAGUCU
RNA 2: AGACUGAGAGAGAUAAAGGGACACGUAUGAAGCGU

What was measured:
IDN2-a (XS+coiled-coil) = target: T1, IDN2-a (XS+coiled-coil); assay: EMSA; 12.5 mM MgCl2; 25 mM HEPES pH 7.6, 50 mM KCl, 0.1 mM EDTA, 12.5 mM MgCl2, 1 mM DTT, 0.5% BSA, 5% glycerol, 2 ug protein, room temperature 30 min; 4% native PAGE; details: protein: recombinant, tags: His (pET30a), label: 5'-32P
IDN2 = target: T2, IDN2; assay: as above; details: protein: recombinant, tags: His (pET28a), label: 5'-32P
IDP1 = target: T3, IDP1; assay: EMSA; 12.5 mM MgCl2; up to 6.4 ug protein; 25 mM HEPES pH 7.6, 50 mM KCl, 0.1 mM EDTA, 12.5 mM MgCl2, 1 mM DTT, 0.5% BSA, 5% glycerol, 2 ug protein, room temperature 30 min; 4% native PAGE; details: protein: recombinant, tags: His (pET28a), label: 5'-32P
IDP2 = target: T4, IDP2; assay: as above; details: protein: recombinant, tags: His (pET28a), label: 5'-32P

| Binder | binding result (IDN2-a (XS+coiled-coil); 5' overhangs 2 nt at both ends) | binding result (IDN2; 5' overhangs 2 nt at both ends) | binding result (IDP1; 5' overhangs 2 nt at both ends) | binding result (IDP2; 5' overhangs 2 nt at both ends) | binding result (IDN2-a (XS+coiled-coil); blunt) | binding result (IDN2; blunt) | binding result (IDP1; blunt) | binding result (IDP2; blunt) |
| --- | --- | --- | --- | --- | --- | --- | --- | --- |
| B1 | binds | binds | no binding | no binding |  |  |  |  |
| B2 |  |  |  |  | binds | binds | no binding | no binding |
